Source: paper PMC11193727, “Neutralizing antibodies reveal cryptic vulnerabilities and interdomain crosstalk in the porcine deltacoronavirus spike protein” (Nature Communications, 2024)
Changes are numbered by the printed parent chain. Numbers in names are those of the source.

How the values were obtained:
[1] = molecular target: PDCoV S ectodomain, prefusion S trimer (porcine deltacoronavirus (PDCoV)); experiment: cryo-EM structure; PDCoV S ectodomain (10.5 µM protomer) incubated with 22C10 Fab for about 10 min at room temperature
[2] = molecular target: recombinant PDCoV S1 monomer (Porcine deltacoronavirus …, UniProt W8Q9Y7); experiment: BLI; settings: both partners purified
PDCoV S1A domain = molecular target: T1, PDCoV S1A domain (Porcine deltacoronavirus …, UniProt W8Q9Y7); experiment: ELISA; purified Strep-tagged S antigens (S trimer, S1B, S1A; 1 µg/ml) coated on Maxisorp plates; human mAbs in fivefold dilutions from 10 µg/ml, RT 1 h; detection with HRP anti-human IgG; settings: both partners purified
T1 construct: also called N-terminal domain; NTD; source: HEK-293T, transient (pCAGGS), purified from culture supernatant (streptactin beads); not shown: triple Strep-tag, C-terminal, kept

[3] = molecular target: T2, PDCoV S1 (wild type), ELISA antigen (Porcine deltacoronavirus …, UniProt W8Q9Y7); experiment: ELISA; settings: both partners purified
T2 construct: source: HEK-293T, purified (Protein A Sepharose)

[4] = molecular target: T3, full length PDCoV S protein expressed on Huh7 cells (porcine deltacoronavirus (PDCoV)); experiment: immunostaining of cells or tissue; settings: one partner purified
T3 construct: source: Huh7, transfected (pCAGGS), formaldehyde-fixed cells
T3 chain: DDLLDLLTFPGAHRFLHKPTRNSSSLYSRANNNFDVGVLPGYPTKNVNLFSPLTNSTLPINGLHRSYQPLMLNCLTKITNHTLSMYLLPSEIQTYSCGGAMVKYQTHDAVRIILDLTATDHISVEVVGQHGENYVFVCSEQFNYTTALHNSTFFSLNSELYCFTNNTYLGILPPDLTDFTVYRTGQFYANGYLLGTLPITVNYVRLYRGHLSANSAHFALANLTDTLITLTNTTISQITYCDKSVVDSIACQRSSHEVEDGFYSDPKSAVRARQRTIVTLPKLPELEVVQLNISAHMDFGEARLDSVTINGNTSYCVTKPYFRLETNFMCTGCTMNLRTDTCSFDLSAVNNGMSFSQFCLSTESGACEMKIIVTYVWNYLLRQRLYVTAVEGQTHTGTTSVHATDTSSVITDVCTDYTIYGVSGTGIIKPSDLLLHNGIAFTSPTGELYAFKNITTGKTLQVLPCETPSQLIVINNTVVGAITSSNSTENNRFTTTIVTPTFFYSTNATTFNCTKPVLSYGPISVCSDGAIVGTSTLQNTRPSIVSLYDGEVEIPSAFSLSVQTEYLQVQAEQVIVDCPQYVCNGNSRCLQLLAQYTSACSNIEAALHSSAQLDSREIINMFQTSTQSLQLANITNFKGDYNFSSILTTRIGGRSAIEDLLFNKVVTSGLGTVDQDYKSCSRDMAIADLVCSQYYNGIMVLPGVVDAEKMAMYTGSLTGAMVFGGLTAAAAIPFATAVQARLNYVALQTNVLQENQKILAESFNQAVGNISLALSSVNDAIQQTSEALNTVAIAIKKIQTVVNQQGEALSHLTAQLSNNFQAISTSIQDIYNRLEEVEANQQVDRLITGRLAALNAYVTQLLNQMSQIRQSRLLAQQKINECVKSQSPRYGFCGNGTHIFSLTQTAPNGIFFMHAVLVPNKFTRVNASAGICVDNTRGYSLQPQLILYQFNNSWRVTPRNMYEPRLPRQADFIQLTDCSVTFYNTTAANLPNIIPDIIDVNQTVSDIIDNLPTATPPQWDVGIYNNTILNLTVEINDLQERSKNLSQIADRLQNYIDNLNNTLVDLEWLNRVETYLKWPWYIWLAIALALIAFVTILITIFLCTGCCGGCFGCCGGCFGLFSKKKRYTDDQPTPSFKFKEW

[5] = molecular target: T4, PDCoV S ectodomain, prefusion S trimer (porcine deltacoronavirus (PDCoV)); experiment: BLI; monomeric S1B or untreated trimeric S immobilised on anti-strep mAb-coated protein A biosensor; mAb (50 µg/ml) or APN (100 µg/ml) for 30 min; settings: both partners purified
T4 construct: also called prefusion PDCoV S trimer; trimeric S ectodomain; source: HEK-293T, transient (pCAGGS), purified from culture supernatant (streptactin beads); not shown: GCN4 trimerization motif, C-terminal, kept; Strep-tag, C-terminal, kept
T4 chain: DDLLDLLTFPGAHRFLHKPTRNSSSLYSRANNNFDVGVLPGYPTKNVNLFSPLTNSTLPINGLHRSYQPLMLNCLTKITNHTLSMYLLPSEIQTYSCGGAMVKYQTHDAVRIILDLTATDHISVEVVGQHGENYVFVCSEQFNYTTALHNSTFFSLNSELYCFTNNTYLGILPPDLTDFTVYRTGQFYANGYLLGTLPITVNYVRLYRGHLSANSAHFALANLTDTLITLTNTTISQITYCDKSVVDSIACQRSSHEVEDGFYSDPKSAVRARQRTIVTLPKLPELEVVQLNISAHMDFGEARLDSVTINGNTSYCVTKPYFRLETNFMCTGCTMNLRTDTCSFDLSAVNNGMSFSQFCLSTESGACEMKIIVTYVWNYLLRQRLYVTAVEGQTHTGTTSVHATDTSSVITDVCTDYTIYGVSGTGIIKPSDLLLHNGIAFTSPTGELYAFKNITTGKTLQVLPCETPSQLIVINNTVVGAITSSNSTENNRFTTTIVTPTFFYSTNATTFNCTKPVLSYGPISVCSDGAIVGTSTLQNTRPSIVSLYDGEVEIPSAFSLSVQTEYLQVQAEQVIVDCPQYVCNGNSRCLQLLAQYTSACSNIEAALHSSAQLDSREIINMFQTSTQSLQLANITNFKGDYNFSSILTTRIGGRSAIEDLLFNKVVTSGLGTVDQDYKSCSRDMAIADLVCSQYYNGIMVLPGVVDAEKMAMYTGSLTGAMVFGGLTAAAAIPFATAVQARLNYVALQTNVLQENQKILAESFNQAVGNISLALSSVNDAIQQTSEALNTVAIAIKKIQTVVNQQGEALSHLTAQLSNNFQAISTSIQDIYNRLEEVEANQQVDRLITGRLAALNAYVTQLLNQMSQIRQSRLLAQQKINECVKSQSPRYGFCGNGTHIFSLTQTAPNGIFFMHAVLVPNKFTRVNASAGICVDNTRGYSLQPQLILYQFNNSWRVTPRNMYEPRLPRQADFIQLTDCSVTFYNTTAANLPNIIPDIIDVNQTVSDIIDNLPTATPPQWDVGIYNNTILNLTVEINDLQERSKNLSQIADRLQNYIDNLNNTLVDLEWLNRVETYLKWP

[6] = molecular target: T5, recombinant PDCoV S1 monomer (porcine deltacoronavirus (PDCoV)); experiment: BLI
T5 chain: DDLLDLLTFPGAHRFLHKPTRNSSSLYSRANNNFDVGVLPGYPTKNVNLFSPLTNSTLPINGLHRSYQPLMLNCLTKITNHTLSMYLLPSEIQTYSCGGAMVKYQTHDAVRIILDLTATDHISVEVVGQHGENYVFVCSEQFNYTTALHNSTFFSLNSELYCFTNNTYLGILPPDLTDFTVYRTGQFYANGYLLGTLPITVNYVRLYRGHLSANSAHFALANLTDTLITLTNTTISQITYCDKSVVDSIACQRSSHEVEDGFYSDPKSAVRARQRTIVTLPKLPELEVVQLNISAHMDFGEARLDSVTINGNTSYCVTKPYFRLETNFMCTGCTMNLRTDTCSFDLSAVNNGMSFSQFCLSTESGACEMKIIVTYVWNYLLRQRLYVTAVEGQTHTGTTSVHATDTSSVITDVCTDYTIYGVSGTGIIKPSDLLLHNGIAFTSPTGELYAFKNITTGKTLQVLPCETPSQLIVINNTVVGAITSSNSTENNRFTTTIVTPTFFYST

Q: With “PDCoV S ectodomain, prefusion S trimer (domain or fragment)” as the molecule, how does the stoichiometry N [1] read?
A: The stoichiometry N was 3.

B1: 22C10 human IgG1 monoclonal antibody (antibody, V domains shown)
VH: EVRLLESGGGLVQPGGSLRLSCAASGFTFSSYAMSWVRQAPGKGLEWVSIITDSGGGTYFADSVKGRFTISRDNSKNTLYLQMNSLRAEDTALYYCVKVGFCYSSTCPFDYWGQGTLVTVSS
VL: ELVMTQSPATLSVSPGERATLSCRASQSVSSDLAWYQQRPGRAPRLLIYDASTRTTGIPARFSGSGSGTEFTLTISSLQSEDFAVYYCHQYNNWLTFGQGTRLEIK
notes: IgG1, kappa; also called mAb 22C10; source: HEK-293T, transient, purified (Protein A Sepharose)
Q: Does B1 bind [2]?
A: Result: binds

Q: Does B1 bind (PDCoV S1A domain)?
A: Result: binds

Q: Does B1 bind [3]?
A: Result: binds

Q: Does B1 bind [4]?
A: Result: binds

Q: Does B1 bind [5]?
A: Result: binds

Q: What about the Kd [6] of the same molecule?
A: The Kd was 46.6 nM.

B2: 42H3 human IgG1 monoclonal antibody (antibody, V domains shown)
VH: QVQLVESGGGVVQPGRSLRLSCAASGFTFSSYDMHWVRQAPGKGLEWVAVIWNDGSNEYYADSVKGRFIISRDNSKNTLYLQMNSLRAEDTAVYYCARRGIIMVRGLLGYWGQGTLVTVSS
VL: DIQMTQSPPSLSASVGDRVTITCRASQGISNYLAWHQQKPGKVPKLLIYTASTLQSGVPSRFSGSGSGTDFTLTISSLQPEDVATYYCQKYNSAPFTFGPGTKVDIK
notes: also called S1B neutralizer
Q: Does B2 bind [2]?
A: Result: binds

Q: And the Kd [6]?
A: The Kd was 42 nM.

B3: 46E6 human IgG1 monoclonal antibody (antibody, V domains shown)
VH: B2 VH with D33A, N53R, Y59F, I69T, N77D
VL: B2 VL
notes: IgG1, kappa; also called S1B neutralizer
Q: Does B3 bind [2]?
A: Result: binds

Q: And the Kd [6]?
A: The Kd was 19.9 nM.
